Results as given in the supplement of paper PMC9112550, “Optimization of the antimicrobial peptide Bac7 by deep mutational scanning” (BMC Biology, 2022).

test system: Escherichia coli TOP10; test: shrunken log2 fold change of peptide-encoding DNA abundance (4.5 h post-induction vs induction); higher = less antimicrobial activity (less host growth inhibition); conditions: time post-induction: 4.5 h; library: site-saturation at positions 5, 18, 19, 20
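Further: peptides expressed intracellularly from a pBAD plasmid library in pooled LB shake-flask culture, induced with 0.3% L-arabinose, DNA abundance read by NGS, three biological replicates, DESeq2 with apeglm shrinkage.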

Sequence | shrunken log2 fold change
RRIRARPPRLPRPRPRPQGTPRP | 0.451
RRIRLRPPRLPRPRPRPILHPRP | -0.231
RRIRWRPPRLPRPRPRPYTNPRP | -0.993
RRIRARPPRLPRPRPRPEKVPRP | 0.131
RRIRWRPPRLPRPRPRPQHTPRP | 0.0837
RRIRHRPPRLPRPRPRPSDIPRP | -0.978
RRIRIRPPRLPRPRPRPEMFPRP | 0.0821
RRIRNRPPRLPRPRPRPSKMPRP | -0.22
RRIRTRPPRLPRPRPRPKAFPRP | -0.149
RRIRPRPPRLPRPRPRPWFFPRP | -0.185
RRIRVRPPRLPRPRPRPMKCPRP | -0.00104
RRIRERPPRLPRPRPRPGWGPRP | 0.521
RRIRCRPPRLPRPRPRPELDPRP | 0.00162
RRIRIRPPRLPRPRPRPEENPRP | -0.306
RRIRHRPPRLPRPRPRPKDGPRP | 0.326
RRIRMRPPRLPRPRPRPAQLPRP | 0.101
RRIRYRPPRLPRPRPRPQAFPRP | -0.142
RRIRARPPRLPRPRPRPVNFPRP | 0.629
RRIRMRPPRLPRPRPRPACQPRP | 0.141
RRIRGRPPRLPRPRPRPGVIPRP | 0.375
RRIRCRPPRLPRPRPRPYMYPRP | -0.912
RRIRWRPPRLPRPRPRPISPPRP | -0.887
RRIRDRPPRLPRPRPRPLRWPRP | 0.274
RRIRCRPPRLPRPRPRPQNMPRP | -0.78
RRIRRRPPRLPRPRPRPLDTPRP | 0.168

Sequence | shrunken log2 fold change
RRIRMRPPRLPRPRPRPCLFPRP | -0.155
RRIRWRPPRLPRPRPRPRSQPRP | 0.434
RRIRKRPPRLPRPRPRPWCHPRP | -0.15
RRIRRRPPRLPRPRPRPGRRPRP | 0.456
RRIRERPPRLPRPRPRPDPDPRP | -0.0294
RRIRIRPPRLPRPRPRPHNMPRP | -0.898
RRIRRRPPRLPRPRPRPCWGPRP | 0.0286
RRIRHRPPRLPRPRPRPHYVPRP | -0.057
RRIRPRPPRLPRPRPRPEYGPRP | -0.167
RRIRARPPRLPRPRPRPPQEPRP | 0.854
RRIRYRPPRLPRPRPRPPGYPRP | 1.43
RRIRHRPPRLPRPRPRPPMTPRP | -0.175
RRIRERPPRLPRPRPRPWMFPRP | 0.0458
RRIRWRPPRLPRPRPRPMYYPRP | -0.32
RRIRPRPPRLPRPRPRPNIIPRP | -0.407
RRIRSRPPRLPRPRPRPYVIPRP | -0.292
RRIRWRPPRLPRPRPRPLFYPRP | -0.427
RRIRHRPPRLPRPRPRPGMQPRP | 0.0824
RRIRYRPPRLPRPRPRPNTAPRP | -0.0149
RRIRQRPPRLPRPRPRPICRPRP | 0.0232
RRIRVRPPRLPRPRPRPECNPRP | -0.195
RRIRTRPPRLPRPRPRPFQKPRP | -0.0018
RRIRTRPPRLPRPRPRPKIAPRP | -0.0425
RRIRGRPPRLPRPRPRPQRMPRP | 0.307
RRIRARPPRLPRPRPRPVVIPRP | 0.206

Sequence | shrunken log2 fold change
RRIRYRPPRLPRPRPRPAALPRP | -0.478
RRIRIRPPRLPRPRPRPCTFPRP | -0.212
RRIRPRPPRLPRPRPRPRGNPRP | -0.16
RRIRYRPPRLPRPRPRPLSNPRP | -0.233
RRIRGRPPRLPRPRPRPYMIPRP | 0.0548
RRIRLRPPRLPRPRPRPDGSPRP | 0.0129
RRIRTRPPRLPRPRPRPCQEPRP | -0.0218
RRIRGRPPRLPRPRPRPSWHPRP | 0.0802
RRIRKRPPRLPRPRPRPASCPRP | 0.431
RRIRSRPPRLPRPRPRPMNDPRP | -0.075
RRIRDRPPRLPRPRPRPGDSPRP | 0.13
RRIRDRPPRLPRPRPRPHVIPRP | -0.0856
RRIRTRPPRLPRPRPRPRMDPRP | -0.38
RRIRKRPPRLPRPRPRPIDEPRP | -0.148
RRIRLRPPRLPRPRPRPEYDPRP | 0.0855
RRIRTRPPRLPRPRPRPAGDPRP | 0.258
RRIRKRPPRLPRPRPRPVYCPRP | -0.199
RRIRSRPPRLPRPRPRPHHFPRP | 0.0761
RRIRIRPPRLPRPRPRPWAPPRP | -0.19
RRIRPRPPRLPRPRPRPAIWPRP | 0.405
RRIRDRPPRLPRPRPRPGKVPRP | -0.00262
RRIRARPPRLPRPRPRPEPIPRP | 0.716
RRIRMRPPRLPRPRPRPERDPRP | 2.25
RRIRVRPPRLPRPRPRPGITPRP | -0.238
RRIRERPPRLPRPRPRPDTIPRP | -0.06

Sequence | shrunken log2 fold change
RRIRCRPPRLPRPRPRPDHLPRP | -0.0314
RRIRQRPPRLPRPRPRPRHNPRP | -0.0654
RRIRSRPPRLPRPRPRPRGVPRP | 0.749
RRIRHRPPRLPRPRPRPCKFPRP | 0.0809
RRIRDRPPRLPRPRPRPGCQPRP | 0.341
RRIRQRPPRLPRPRPRPFLHPRP | 0.0118
RRIRYRPPRLPRPRPRPCIMPRP | -3.3
RRIRWRPPRLPRPRPRPIMQPRP | 0.0828
RRIRNRPPRLPRPRPRPYYSPRP | -0.541
RRIRNRPPRLPRPRPRPSCPPRP | -0.4
RRIRKRPPRLPRPRPRPNCDPRP | 0.142
RRIRHRPPRLPRPRPRPERTPRP | 0.0203
RRIRHRPPRLPRPRPRPLINPRP | -0.201
RRIRIRPPRLPRPRPRPCSRPRP | -0.139
RRIRRRPPRLPRPRPRPCHQPRP | -0.172
RRIRPRPPRLPRPRPRPFAIPRP | -0.232
RRIRLRPPRLPRPRPRPGDNPRP | 0.0735
RRIRSRPPRLPRPRPRPNYSPRP | -0.401
RRIRLRPPRLPRPRPRPLQMPRP | -0.135
RRIRFRPPRLPRPRPRPRMFPRP | 0.169
RRIRSRPPRLPRPRPRPKGVPRP | 0.0137
RRIRHRPPRLPRPRPRPWFRPRP | -0.00674
RRIRPRPPRLPRPRPRPMPPPRP | 0.194
RRIRMRPPRLPRPRPRPIRRPRP | -0.168
RRIRYRPPRLPRPRPRPWGKPRP | -0.461

Sequence | shrunken log2 fold change
RRIRHRPPRLPRPRPRPWISPRP | -0.0102
RRIRFRPPRLPRPRPRPELDPRP | 0.0203
RRIRWRPPRLPRPRPRPWFIPRP | -0.436
RRIRKRPPRLPRPRPRPNKCPRP | -0.106
RRIRWRPPRLPRPRPRPHSGPRP | 0.00842
RRIRIRPPRLPRPRPRPHCEPRP | -1.54
RRIRYRPPRLPRPRPRPHGKPRP | 0.0161
RRIRVRPPRLPRPRPRPHAMPRP | -0.18
RRIRCRPPRLPRPRPRPQRDPRP | -0.304
RRIRDRPPRLPRPRPRPWPDPRP | 0.129
RRIRFRPPRLPRPRPRPSLHPRP | -0.558
RRIRERPPRLPRPRPRPAACPRP | 0.0165
RRIRTRPPRLPRPRPRPQLIPRP | -0.222
RRIRCRPPRLPRPRPRPQTDPRP | -0.00613
RRIRQRPPRLPRPRPRPSGAPRP | 0.054
RRIRMRPPRLPRPRPRPCLIPRP | -0.0342
RRIRGRPPRLPRPRPRPMFSPRP | 0.147
RRIRDRPPRLPRPRPRPWHEPRP | -0.266
RRIRHRPPRLPRPRPRPASAPRP | 0.0183
RRIRARPPRLPRPRPRPNQAPRP | -0.117
RRIRQRPPRLPRPRPRPLAKPRP | -0.041
RRIRKRPPRLPRPRPRPKDYPRP | -0.0531
RRIRTRPPRLPRPRPRPIIHPRP | -0.937
RRIRPRPPRLPRPRPRPPTNPRP | 0.222
RRIRLRPPRLPRPRPRPWAPPRP | 1.18
